In patent US20250326826A1:

Legend:
Experiment in all cases: cell-based or functional assay
[1] = target: bFGF (soluble stimulus added to cell cultures)
[2] = target: VEGF (soluble stimulus added to cell cultures)
[3] = target: Human VEGF (dendritic cell assay) (human) (UniProt P15692)
Sequence of Human VEGF (dendritic cell assay) (human) (P15692 other isoform, or with tags, fused parts or gaps limits assumed): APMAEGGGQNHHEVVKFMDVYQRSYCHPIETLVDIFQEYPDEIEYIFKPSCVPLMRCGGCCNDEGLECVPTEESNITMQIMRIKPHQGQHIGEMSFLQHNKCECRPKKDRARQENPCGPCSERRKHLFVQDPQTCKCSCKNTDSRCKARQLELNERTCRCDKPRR

## Nb-Neg (VHH)
[1]
  IC50, bFGF-induced proliferation of 3T3A31 cells: > 250
  IC50, bFGF-induced proliferation of A549 cells: > 250
  IC50, bFGF-induced proliferation of B16F10 cells: > 250
  IC50, bFGF-induced proliferation of NIH3T3 cells: > 250
  IC50, proliferation of HDMEC cells +bFGF (10 ng/ml): > 6 µM
  average of nodes of the HDMEC network on Matrigel, bFGF 10 ng/mL, VHH 150 nM (nodes per field): 40
[2]
  IC50, proliferation of HDMEC cells +VEGF (5 ng/ml): > 6 µM
  PD1 expression (%) in CD8+ cells treated with VEGF, VHH 1 µg/mL: 68%
  PD1 expression (%) in CD8+ cells treated with VEGF, VHH 5 µg/mL: 67%
  PD1 expression (%) in CD8+ cells treated with VEGF, VHH 10 µg/mL: 65%
  average of nodes of the HDMEC network on Matrigel, VEGF 100 ng/mL, VHH 150 nM (nodes per field): 41
[3]
  CD86 (MFI) on dendritic cells +VEGF +LPS, VHH 1 µg/mL: 1980 MFI
  CD86 (MFI) on dendritic cells +VEGF +LPS, VHH 5 µg/mL: 2050 MFI
  CD86 (MFI) on dendritic cells +VEGF +LPS, VHH 10 µg/mL: 2000 MFI
  MHCII (MFI) on dendritic cells +VEGF +LPS, VHH 1 µg/mL: 5210 MFI
  MHCII (MFI) on dendritic cells +VEGF +LPS, VHH 5 µg/mL: 5140 MFI
  MHCII (MFI) on dendritic cells +VEGF +LPS, VHH 10 µg/mL: 4910 MFI
